{"source": "patent US20080215402A1", "about": "“Methods and Systems for Evaluating Interaction of Medical Products and Dependence on Demographic Variables” (priority 2005, published 2008)", "key": {"[1]": {"conditions": "human"}, "[2]": {"experiment": "orthogonalized contingency lattice analysis of AERS reports, reference condition rhabdomyolysis", "conditions": "for Z (z-score, rhabdomyolysis vs non-rhabdomyolysis randomized datasets): * = significant at Bonferroni-corrected 5% level (|z| > 12); for Nrhabdo (subset size based on the rhabdomyolysis dataset): records listing the drug(s) and excluding the other drugs, NR=11,773", "method": "As a consequence, it should be noted that all of these subsets are mutually exclusive, with no patient appearing in more than one subset.\nThe results obtained from the orthogonalized contingency lattice just described are analyzed exactly as in the case of the basic contingency lattice described previously.\nAs before, significance is assessed using the Bonferroni-corrected z-score analysis described earlier herein. The primary difference between the results obtained with the original contingency lattice construction and those obtained with the orthogonalized construction lies in the fact that the orthogonalized patient subsets are mutually exclusive."}, "[3]": {"experiment": "two-way interaction analysis of AERS records, Infliximab and Methotrexate with pulmonary fibrosis", "parameters": "species or system patients", "conditions": "records listing both drugs vs 100 random samples of each reference population; FIG. 6", "from_the_text": "In the following description, let N denote the size of the first subset listed above—i.e., the total number of records in the available database listing both drugs. The interaction analysis considered here begins by computing NX, the number of times that Reaction X appears in this first record subset, and the objective of the analysis is to provide reference numbers to answer the following questions:\nEach of these questions defines a collection of random reference sets that may be used to provide answers. Specifically, M random samples, each of size N, are drawn from the reference population defined by each of these questions (i.e., Drug A alone, Drug B alone, and neither drug), and the number of records in each random sample that also lists Reaction X is recorded."}, "[4]": {"conditions": "N=898 tuberculosis patients vs 200 random samples; Bonferroni-corrected 5% threshold; FIG. 7"}, "[5]": {"conditions": "reaction: antinuclear antibody positive"}, "[6]": {"conditions": "reaction: crohn's disease aggravated"}, "[7]": {"conditions": "reaction: disseminated tuberculosis"}, "[8]": {"conditions": "reaction: dna antibody nos positive"}, "[9]": {"conditions": "reaction: drug withdrawal syndrome"}, "[10]": {"conditions": "reaction: infusion related reaction"}, "[11]": {"conditions": "reaction: pharmaceutical product complaint"}, "[12]": {"conditions": "reaction: pneumocystis carinii pneumonia"}, "[13]": {"conditions": "reaction: pulmonary tuberculosis"}, "[14]": {"conditions": "reaction: rheumatoid arthritis aggravated"}, "[15]": {"conditions": "reaction: systemic lupus erythematosus"}}, "note": "Like-named read-outs stand apart in the source and are kept apart here. Marks after values point to notes of the source that are not given here."}
{"compound": "Cc1ccc(C)c(OCCCC(C)(C)C(=O)O)c1", "note": "[Case L, gemfibrozil]", "values": [{"measurement": "Nref^+ (maximum subset size from the 200 randomly generated non-rhabdomyolysis datasets)", "setting": "[1]", "value": 72}, {"measurement": "Nref^− (minimum subset size from the 200 randomly generated non-rhabdomyolysis datasets)", "setting": "[1]", "value": 33}, {"measurement": "Nrhabdo (subset size based on the rhabdomyolysis dataset)", "setting": "[1]", "value": 2982}, {"measurement": "PChebyshev (probability derived from the Chebyshev inequality)", "setting": "[1]", "value": "6.16 × 10^−6"}, {"measurement": "Nref^+ (maximum subset size from the 200 randomly generated non-rhabdomyolysis datasets)", "setting": "[2]", "value": 55}, {"measurement": "Nref^− (minimum subset size from the 200 randomly generated non-rhabdomyolysis datasets)", "setting": "[2]", "value": 21}, {"measurement": "PChebyshev (probability derived from the Chebyshev inequality)", "setting": "[2]", "value": "5.36 × 10^−4"}, {"measurement": "association with rhabdomyolysis (in words)", "setting": "[2]", "value": "only weak evidence"}, {"measurement": "Z (z-score, rhabdomyolysis vs non-rhabdomyolysis randomized datasets)", "setting": "[2]; listed as L BP", "value": "43*"}, {"measurement": "Z (z-score, rhabdomyolysis vs non-rhabdomyolysis randomized datasets)", "setting": "[2]; listed as Lopid", "value": 43}, {"measurement": "Nrhabdo (subset size based on the rhabdomyolysis dataset)", "setting": "[2]", "value": 306}]}
{"compound": "COC(=O)[C@H](c1ccccc1Cl)N1CCc2sccc2C1", "note": "[Case P, clopidogrel bisulfate]", "values": [{"measurement": "Nref^+ (maximum subset size from the 200 randomly generated non-rhabdomyolysis datasets)", "setting": "[1]", "value": 177}, {"measurement": "Nref^− (minimum subset size from the 200 randomly generated non-rhabdomyolysis datasets)", "setting": "[1]", "value": 114}, {"measurement": "Nrhabdo (subset size based on the rhabdomyolysis dataset)", "setting": "[1]", "value": 465}, {"measurement": "PChebyshev (probability derived from the Chebyshev inequality)", "setting": "[1]", "value": "1.43 × 10^−3"}, {"measurement": "association with rhabdomyolysis (in words)", "setting": "[1]", "value": "significant at the Bonferroni-corrected 5%"}, {"measurement": "z (z-score, rhabdomyolysis vs non-rhabdomyolysis datasets)", "setting": "[1]", "value": "26*"}, {"measurement": "Nref^+ (maximum subset size from the 200 randomly generated non-rhabdomyolysis datasets)", "setting": "[2]", "value": 169}, {"measurement": "Nref^− (minimum subset size from the 200 randomly generated non-rhabdomyolysis datasets)", "setting": "[2]", "value": 109}, {"measurement": "PChebyshev (probability derived from the Chebyshev inequality)", "setting": "[2]", "value": "2.20 × 10^−1"}, {"measurement": "Z (z-score, rhabdomyolysis vs non-rhabdomyolysis randomized datasets)", "setting": "[2]", "value": 2}, {"measurement": "Nrhabdo (subset size based on the rhabdomyolysis dataset)", "setting": "[2]", "value": 163}]}
{"compound": "CN(Cc1cnc2nc(N)nc(N)c2n1)c1ccc(C(=O)N[C@@H](CCC(=O)O)C(=O)O)cc1", "note": "[Methotrexate, methotrexate]", "values": [{"measurement": "drug interaction with respect to pulmonary fibrosis (in words)", "setting": "[3]", "value": "responsible for the large number of cases seen when both drugs are present"}]}
{"compound": "infliximab", "values": [{"measurement": "number of adverse events that exceed the Bonferroni-corrected 5% significance threshold", "setting": "AERS", "value": 365}, {"measurement": "Uab", "setting": "designation: bone & joint tuberculosis", "value": "1.09 × 10^5"}, {"measurement": "Uab", "setting": "designation: bone amp joint tuberculosis", "value": "1.34 × 10^6"}, {"measurement": "Uab", "setting": "designation: disseminated tuberculosis", "value": "6.22 × 10^117"}, {"measurement": "Uab", "setting": "designation: lymph node tuberculosis", "value": "1.57 × 10^8"}, {"measurement": "Uab", "setting": "designation: lymph node tuberculosis nos", "value": "4.98 × 10^15"}, {"measurement": "Uab", "setting": "designation: peritoneal tuberculosis", "value": "8.61 × 10^9"}, {"measurement": "Uab", "setting": "designation: pulmonary tuberculosis", "value": "1.11 × 10^109"}, {"measurement": "Uab", "setting": "designation: spleen tuberculosis", "value": "1.47 × 10^12"}, {"measurement": "Uab", "setting": "designation: tuberculosis", "value": "1.18 × 10^74"}, {"measurement": "Uab", "setting": "designation: tuberculosis gastrointestinal nos", "value": "2.85 × 10^10"}, {"measurement": "Uab", "setting": "designation: tuberculosis nos", "value": ">10^308"}, {"measurement": "Uab", "setting": "designation: tuberculosis reactivated", "value": "3.40 × 10^6"}, {"measurement": "NAB", "setting": "[5]", "value": 65}, {"measurement": "RAB", "setting": "[5]", "value": 12.93}, {"measurement": "log10 UAB (Statistical Unexpectedness)", "setting": "[5]", "value": 51.53}, {"measurement": "NAB", "setting": "reaction: basal cell carcinoma", "value": 88}, {"measurement": "RAB", "setting": "reaction: basal cell carcinoma", "value": 21.17}, {"measurement": "log10 UAB (Statistical Unexpectedness)", "setting": "reaction: basal cell carcinoma", "value": 92.07}, {"measurement": "NAB", "setting": "reaction: crohn's disease", "value": 60}, {"measurement": "RAB", "setting": "reaction: crohn's disease", "value": 11.26}, {"measurement": "log10 UAB (Statistical Unexpectedness)", "setting": "reaction: crohn's disease", "value": 43.74}, {"measurement": "NAB", "setting": "[6]", "value": 45}, {"measurement": "RAB", "setting": "[6]", "value": 22.02}, {"measurement": "log10 UAB (Statistical Unexpectedness)", "setting": "[6]", "value": 48.51}, {"measurement": "NAB", "setting": "[7]", "value": 93}, {"measurement": "RAB", "setting": "[7]", "value": 30.00}, {"measurement": "log10 UAB (Statistical Unexpectedness)", "setting": "[7]", "value": 117.79}, {"measurement": "NAB", "setting": "[8]", "value": 59}, {"measurement": "RAB", "setting": "[8]", "value": 24.01}, {"measurement": "log10 UAB (Statistical Unexpectedness)", "setting": "[8]", "value": 66.39}, {"measurement": "NAB", "setting": "[9]", "value": 2}, {"measurement": "RAB", "setting": "[9]", "value": 0.02}, {"measurement": "log10 UAB (Statistical Unexpectedness)", "setting": "[9]", "value": 44.68}, {"measurement": "NAB", "setting": "reaction: flushing", "value": 254}, {"measurement": "RAB", "setting": "reaction: flushing", "value": 4.37}, {"measurement": "log10 UAB (Statistical Unexpectedness)", "setting": "reaction: flushing", "value": 83.41}, {"measurement": "NAB", "setting": "[10]", "value": 63}, {"measurement": "RAB", "setting": "[10]", "value": 19.32}, {"measurement": "log10 UAB (Statistical Unexpectedness)", "setting": "[10]", "value": 62.93}, {"measurement": "NAB", "setting": "reaction: listeriosis", "value": 41}, {"measurement": "RAB", "setting": "reaction: listeriosis", "value": 30.26}, {"measurement": "log10 UAB (Statistical Unexpectedness)", "setting": "reaction: listeriosis", "value": 52.60}, {"measurement": "NAB", "setting": "reaction: lupus-like syndrome", "value": 179}, {"measurement": "RAB", "setting": "reaction: lupus-like syndrome", "value": 27.45}, {"measurement": "log10 UAB (Statistical Unexpectedness)", "setting": "reaction: lupus-like syndrome", "value": 215.11}, {"measurement": "NAB", "setting": "reaction: medication error", "value": 17}, {"measurement": "RAB", "setting": "reaction: medication error", "value": 0.07}, {"measurement": "log10 UAB (Statistical Unexpectedness)", "setting": "reaction: medication error", "value": 75.78}, {"measurement": "NAB", "setting": "[11]", "value": 6}, {"measurement": "RAB", "setting": "[11]", "value": 0.05}, {"measurement": "log10 UAB (Statistical Unexpectedness)", "setting": "[11]", "value": 41.69}, {"measurement": "NAB", "setting": "[12]", "value": 66}, {"measurement": "RAB", "setting": "[12]", "value": 9.58}, {"measurement": "log10 UAB (Statistical Unexpectedness)", "setting": "[12]", "value": 43.17}, {"measurement": "NAB", "setting": "reaction: pneumonia nos", "value": 369}, {"measurement": "RAB", "setting": "reaction: pneumonia nos", "value": 2.92}, {"measurement": "log10 UAB (Statistical Unexpectedness)", "setting": "reaction: pneumonia nos", "value": 71.42}, {"measurement": "NAB", "setting": "[13]", "value": 99}, {"measurement": "RAB", "setting": "[13]", "value": 23.31}, {"measurement": "log10 UAB (Statistical Unexpectedness)", "setting": "[13]", "value": 109.04}, {"measurement": "NAB", "setting": "reaction: pyrexia", "value": 596}, {"measurement": "RAB", "setting": "reaction: pyrexia", "value": 1.80}, {"measurement": "log10 UAB (Statistical Unexpectedness)", "setting": "reaction: pyrexia", "value": 41.44}, {"measurement": "RAB", "setting": "reaction: rhabdomyolysis", "value": 0.08}, {"measurement": "log10 UAB (Statistical Unexpectedness)", "setting": "reaction: rhabdomyolysis", "value": 58.33}, {"measurement": "NAB", "setting": "[14]", "value": 60}, {"measurement": "RAB", "setting": "[14]", "value": 12.27}, {"measurement": "log10 UAB (Statistical Unexpectedness)", "setting": "[14]", "value": 46.14}, {"measurement": "NAB", "setting": "reaction: rigors", "value": 252}, {"measurement": "RAB", "setting": "reaction: rigors", "value": 2.65}, {"measurement": "log10 UAB (Statistical Unexpectedness)", "setting": "reaction: rigors", "value": 41.86}, {"measurement": "NAB", "setting": "reaction: sepsis nos", "value": 268}, {"measurement": "RAB", "setting": "reaction: sepsis nos", "value": 3.28}, {"measurement": "log10 UAB (Statistical Unexpectedness)", "setting": "reaction: sepsis nos", "value": 61.87}, {"measurement": "NAB", "setting": "[15]", "value": 192}, {"measurement": "RAB", "setting": "[15]", "value": 11.24}, {"measurement": "log10 UAB (Statistical Unexpectedness)", "setting": "[15]", "value": 137.84}, {"measurement": "NAB", "setting": "reaction: tuberculosis", "value": 64}, {"measurement": "RAB", "setting": "reaction: tuberculosis", "value": 25.34}, {"measurement": "log10 UAB (Statistical Unexpectedness)", "setting": "reaction: tuberculosis", "value": 74.07}, {"measurement": "NAB", "setting": "reaction: tuberculosis nos", "value": 275}, {"measurement": "RAB", "setting": "reaction: tuberculosis nos", "value": 29.00}, {"measurement": "log10 UAB (Statistical Unexpectedness)", "setting": "reaction: tuberculosis nos", "value": ">308.00"}, {"measurement": "association with tuberculosis by orthogonalized lattice analysis (in words)", "setting": "[4]", "value": "only strong positive association with tuberculosis"}]}
